Measured values as given in article PMC9482650, “Quantitative fragmentomics allow affinity mapping of interactomes” (Nature Communications, 2022).

Assays:
Experiment in all cases: holdup assay
Parameters in all cases: key: below the threshold = too weak to quantify, mostly under pKd 3.1 to 4
[1] = molecular target: PTPN3, P26045
[2] = molecular target: T1, DFNB31_3, Q9P202
T1 sequence (Q9P202 811-907, limits assumed, looked up): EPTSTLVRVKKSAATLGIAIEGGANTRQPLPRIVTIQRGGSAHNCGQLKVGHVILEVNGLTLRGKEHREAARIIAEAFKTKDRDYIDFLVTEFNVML

[3] = molecular target: DLG4_3, P78352
[4] = molecular target: T2, DVL3, Q92997
T2 sequence (Q92997 244-331, limits assumed, looked up): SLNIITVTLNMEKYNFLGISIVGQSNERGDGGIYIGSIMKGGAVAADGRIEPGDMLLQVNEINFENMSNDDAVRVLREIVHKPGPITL

[5] = molecular target: FRMPD3, Q5JV73
[6] = molecular target: T3, CARD11, Q9BXL7
T3 sequence (Q9BXL7 662-765, limits assumed, looked up): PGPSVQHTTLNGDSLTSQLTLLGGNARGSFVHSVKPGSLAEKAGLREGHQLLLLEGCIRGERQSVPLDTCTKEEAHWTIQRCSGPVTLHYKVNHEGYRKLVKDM

[7] = molecular target: T4, TIAM2, Q8IVF5
T4 sequence (Q8IVF5 885-986, limits assumed, looked up): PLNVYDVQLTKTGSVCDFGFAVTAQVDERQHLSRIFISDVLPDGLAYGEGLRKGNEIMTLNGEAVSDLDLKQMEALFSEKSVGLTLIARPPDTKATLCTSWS

[8] = molecular target: MAST1, Q9Y2H9
[9] = molecular target: T5, GRIP1_7, Q9Y3R0
T5 sequence (Q9Y3R0 999-1096, limits assumed, looked up): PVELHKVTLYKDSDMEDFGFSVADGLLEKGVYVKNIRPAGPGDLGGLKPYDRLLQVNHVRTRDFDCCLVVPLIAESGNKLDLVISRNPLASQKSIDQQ

[10] = molecular target: T6, LNX2_3, Q8N448
T6 sequence (Q8N448 463-564, limits assumed, looked up): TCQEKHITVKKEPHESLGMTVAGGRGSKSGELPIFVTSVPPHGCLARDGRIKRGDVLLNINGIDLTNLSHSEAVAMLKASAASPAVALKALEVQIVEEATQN

[11] = molecular target: SCRIB_3, Q14160
[12] = molecular target: T7, DLG3_3, Q92796
T7 sequence (Q92796 374-475, limits assumed, looked up): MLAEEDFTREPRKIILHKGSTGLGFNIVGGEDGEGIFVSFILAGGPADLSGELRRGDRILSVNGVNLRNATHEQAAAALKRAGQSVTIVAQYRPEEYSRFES

[13] = molecular target: T8, DFNB31_1, Q9P202
T8 sequence (Q9P202 135-233, limits assumed, looked up): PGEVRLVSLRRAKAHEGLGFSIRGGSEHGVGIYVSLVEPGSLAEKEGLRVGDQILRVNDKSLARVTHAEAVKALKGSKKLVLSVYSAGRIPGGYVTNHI

[14] = molecular target: MAGI2_5, Q86UL8
[15] = molecular target: T9, RHPN1, Q8TCX5
T9 sequence (Q8TCX5 508-602, limits assumed, looked up): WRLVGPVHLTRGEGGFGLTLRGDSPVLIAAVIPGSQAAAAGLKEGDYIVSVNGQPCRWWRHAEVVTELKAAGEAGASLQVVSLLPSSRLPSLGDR

[16] = molecular target: Inadl_10, Q8NI35
[17] = molecular target: MAGI2_3, Q86UL8
[18] = molecular target: T10, GRIP1_3, Q9Y3R0
T10 sequence (Q9Y3R0 247-346, limits assumed, looked up): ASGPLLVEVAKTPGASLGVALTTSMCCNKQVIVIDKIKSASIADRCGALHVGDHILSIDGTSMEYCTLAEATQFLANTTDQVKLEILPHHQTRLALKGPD

[19] = molecular target: MAGI1_2, Q96QZ7
[20] = molecular target: T11, PCLO, Q9Y6V0
T11 sequence (Q9Y6V0 4491-4600, limits assumed, looked up): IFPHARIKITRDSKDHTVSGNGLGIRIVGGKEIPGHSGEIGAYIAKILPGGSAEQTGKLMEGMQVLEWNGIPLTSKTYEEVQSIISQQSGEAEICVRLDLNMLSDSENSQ

[21] = molecular target: Inadl_6, Q8NI35
[22] = molecular target: DLG1_1, Q12959
[23] = molecular target: DLG1_2, Q12959
[24] = molecular target: TJP2_1, Q9UDY2
[25] = molecular target: NHERF2_2, Q15599
[26] = molecular target: GRID2IP_2, A4D2P6
[27] = molecular target: CASK, O14936
[28] = plain residues with an end cap or a label only (N-terminal biotin on a linker: ttds)
[29] = plain residues with an end cap or a label only (N-terminal biotin on a linker: ado-ado)
[30] = plain residues with an end cap or a label only (N-terminal biotin on a linker: ahx)

CASK, O14936, sequence (O14936 487-570): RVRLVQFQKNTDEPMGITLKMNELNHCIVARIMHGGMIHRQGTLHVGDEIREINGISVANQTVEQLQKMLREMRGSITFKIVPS
NHERF2_2, Q15599, sequence (Q15599 142-238): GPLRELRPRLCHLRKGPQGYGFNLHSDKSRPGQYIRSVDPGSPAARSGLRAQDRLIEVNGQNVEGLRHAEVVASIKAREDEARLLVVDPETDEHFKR
Inadl_6, Q8NI35, sequence (Q8NI35 1058-1167): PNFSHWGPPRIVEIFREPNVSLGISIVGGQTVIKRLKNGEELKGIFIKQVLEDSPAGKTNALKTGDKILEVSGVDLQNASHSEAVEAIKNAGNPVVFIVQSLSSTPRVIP
FRMPD3, Q5JV73, sequence (Q5JV73 12-100): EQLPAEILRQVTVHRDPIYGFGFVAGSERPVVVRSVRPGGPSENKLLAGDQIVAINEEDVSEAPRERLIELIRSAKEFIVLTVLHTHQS
MAGI1_2, Q96QZ7, sequence (Q96QZ7 456-580): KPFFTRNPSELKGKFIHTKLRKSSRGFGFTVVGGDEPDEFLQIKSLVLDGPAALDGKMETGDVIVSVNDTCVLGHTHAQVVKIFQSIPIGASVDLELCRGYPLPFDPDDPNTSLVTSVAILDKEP
DLG4_3, P78352, sequence (P78352 306-403): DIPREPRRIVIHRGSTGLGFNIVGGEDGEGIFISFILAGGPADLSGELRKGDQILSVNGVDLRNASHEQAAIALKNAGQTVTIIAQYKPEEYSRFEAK
PTPN3, P26045, sequence (P26045 505-587): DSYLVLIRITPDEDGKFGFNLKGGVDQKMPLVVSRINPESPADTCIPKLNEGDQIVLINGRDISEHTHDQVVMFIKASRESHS
MAGI2_3, Q86UL8, sequence (Q86UL8 600-682): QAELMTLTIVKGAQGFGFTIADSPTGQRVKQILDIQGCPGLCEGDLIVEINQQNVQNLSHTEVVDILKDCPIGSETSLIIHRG
MAGI2_5, Q86UL8, sequence (Q86UL8 915-1017): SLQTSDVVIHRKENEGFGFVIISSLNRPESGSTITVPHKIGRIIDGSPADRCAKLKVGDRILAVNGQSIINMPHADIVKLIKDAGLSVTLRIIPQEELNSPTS
MAST1, Q9Y2H9, sequence (Q9Y2H9 962-1065): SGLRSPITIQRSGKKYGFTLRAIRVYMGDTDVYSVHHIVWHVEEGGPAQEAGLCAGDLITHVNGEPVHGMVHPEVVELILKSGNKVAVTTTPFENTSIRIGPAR
SCRIB_3, Q14160, sequence (Q14160 999-1103): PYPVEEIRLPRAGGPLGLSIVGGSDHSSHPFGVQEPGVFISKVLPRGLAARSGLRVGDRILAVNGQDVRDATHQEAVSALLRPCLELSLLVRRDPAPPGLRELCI
TJP2_1, Q9UDY2, sequence (Q9UDY2 24-128): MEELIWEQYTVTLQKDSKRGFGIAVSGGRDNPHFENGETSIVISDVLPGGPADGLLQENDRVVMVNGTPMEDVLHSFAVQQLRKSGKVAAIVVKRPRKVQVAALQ
Inadl_10, Q8NI35, sequence (Q8NI35 1673-1763): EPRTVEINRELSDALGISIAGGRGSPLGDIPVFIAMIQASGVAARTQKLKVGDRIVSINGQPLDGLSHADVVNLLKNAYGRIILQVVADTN
GRID2IP_2, A4D2P6, sequence (A4D2P6 272-370): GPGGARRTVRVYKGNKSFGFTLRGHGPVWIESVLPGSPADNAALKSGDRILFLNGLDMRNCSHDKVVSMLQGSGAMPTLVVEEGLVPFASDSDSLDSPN

SEKHFRETEV [HTLV1-TAX1, P03409]
pKd [1, 28]: 5.26 | pKd [2, 28]: below the threshold | pKd [3, 28]: 5.34 | pKd [4, 28]: 3.62 | pKd [5, 28]: below the threshold | pKd [6, 28]: below the threshold | pKd [7, 28]: below the threshold | pKd [8, 28]: below the threshold | pKd [9, 28]: below the threshold | pKd [10, 28]: below the threshold | pKd [11, 28]: 5.34 | pKd [12, 28]: 5.34 | pKd [13, 28]: 3.96 | pKd [14, 28]: 4.84 | pKd [15, 28]: 4.08 | pKd [16, 28]: below the threshold | pKd [17, 28]: 4.3 | pKd [18, 28]: below the threshold | pKd [19, 28]: 4.45 | pKd [20, 28]: below the threshold | pKd [21, 28]: 3.69 | pKd [22, 28]: 5.19 | pKd [23, 28]: 5.75 | pKd [24, 28]: below the threshold | pKd [25, 28]: below the threshold | pKd [26, 28]: 3.84 | pKd [27, 28]: below the threshold

SVVSERISSV [HTR2C, P28335]
pKd [1, 29]: 4.8 | pKd [2, 29]: 3.76 | pKd [3, 29]: below the threshold | pKd [4, 29]: below the threshold | pKd [5, 29]: below the threshold | pKd [6, 29]: below the threshold | pKd [7, 29]: 3.88 | pKd [8, 29]: 4.02 | pKd [9, 29]: below the threshold | pKd [10, 29]: below the threshold | pKd [11, 29]: 3.71 | pKd [12, 29]: below the threshold | pKd [13, 29]: below the threshold | pKd [14, 29]: 4.01 | pKd [15, 29]: 4.65 | pKd [16, 29]: below the threshold | pKd [17, 29]: 4.3 | pKd [18, 29]: below the threshold | pKd [19, 29]: below the threshold | pKd [20, 29]: below the threshold | pKd [21, 29]: below the threshold | pKd [22, 29]: 4.07 | pKd [23, 29]: 4.74 | pKd [24, 29]: below the threshold | pKd [25, 29]: below the threshold | pKd [26, 29]: 4.44 | pKd [27, 29]: below the threshold

HIVEALETDV [PBK, Q96KB5]
pKd [1, 28]: 5.11 | pKd [2, 28]: below the threshold | pKd [3, 28]: below the threshold | pKd [4, 28]: below the threshold | pKd [5, 28]: below the threshold | pKd [6, 28]: below the threshold | pKd [7, 28]: below the threshold | pKd [8, 28]: 5.15 | pKd [9, 28]: below the threshold | pKd [10, 28]: below the threshold | pKd [11, 28]: 5.18 | pKd [12, 28]: 3.88 | pKd [13, 28]: 4.03 | pKd [14, 28]: 3.98 | pKd [15, 28]: 4.91 | pKd [16, 28]: below the threshold | pKd [17, 28]: 3.93 | pKd [18, 28]: below the threshold | pKd [19, 28]: below the threshold | pKd [20, 28]: below the threshold | pKd [21, 28]: 3.78 | pKd [22, 28]: 5.01 | pKd [23, 28]: 5.66 | pKd [24, 28]: below the threshold | pKd [25, 28]: 3.97 | pKd [26, 28]: 3.96 | pKd [27, 28]: below the threshold

MERLRVETDV [ARHGEF16, Q5VV41]
pKd [1, 28]: 4.38 | pKd [2, 28]: below the threshold | pKd [3, 28]: below the threshold | pKd [4, 28]: 3.65 | pKd [5, 28]: below the threshold | pKd [6, 28]: below the threshold | pKd [7, 28]: below the threshold | pKd [8, 28]: 4.39 | pKd [9, 28]: below the threshold | pKd [10, 28]: below the threshold | pKd [11, 28]: 5.21 | pKd [12, 28]: 3.88 | pKd [13, 28]: below the threshold | pKd [14, 28]: below the threshold | pKd [15, 28]: 4.18 | pKd [16, 28]: below the threshold | pKd [17, 28]: 3.53 | pKd [18, 28]: below the threshold | pKd [19, 28]: 3.9 | pKd [20, 28]: below the threshold | pKd [21, 28]: below the threshold | pKd [22, 28]: 5.01 | pKd [23, 28]: 5.5 | pKd [24, 28]: below the threshold | pKd [25, 28]: below the threshold | pKd [26, 28]: 3.57 | pKd [27, 28]: below the threshold

EKLSSIESDV [GRIN2B, Q13224]
pKd [1, 30]: 4.35 | pKd [2, 30]: below the threshold | pKd [3, 30]: below the threshold | pKd [4, 30]: below the threshold | pKd [5, 30]: below the threshold | pKd [6, 30]: below the threshold | pKd [7, 30]: 3.71 | pKd [8, 30]: 4.04 | pKd [9, 30]: 3.48 | pKd [10, 30]: below the threshold | pKd [11, 30]: 4.28 | pKd [12, 30]: below the threshold | pKd [13, 30]: below the threshold | pKd [14, 30]: 3.82 | pKd [15, 30]: 4.73 | pKd [16, 30]: below the threshold | pKd [17, 30]: below the threshold | pKd [18, 30]: below the threshold | pKd [19, 30]: below the threshold | pKd [20, 30]: below the threshold | pKd [21, 30]: below the threshold | pKd [22, 30]: 4.3 | pKd [23, 30]: 4.97 | pKd [24, 30]: below the threshold | pKd [25, 30]: below the threshold | pKd [26, 30]: below the threshold | pKd [27, 30]: below the threshold
